Laboratory results reported in the DeepSol protein solubility set.

assay: soluble on expression in E. coli; label from the status in PepcDB or PDB records

| Sequence | soluble on expression in E. coli |
| --- | --- |
| MLKGKTIYVRPLEVTDAEENLGLQSENRDFFEQFSMIRADDYYTVEGQRKRITEYQERLEKDEEYHFGIFTASDDRLIGTVSLFQIIRGALQTAFIGYFLDKAHNGKGIMTEAVRLVVDYAFHELKLHRIEAGVMPRNLGSMRVLEKAGFHKEGIARKNVKINGVWEDHQVLAILNPDDEQLEHHHHHH | not soluble |
| MLKIGIIPNEDKDEELKYTRILVDSIKKCGGTAIVCDDIALKLGDKESNINEDNIVDMSDVMVCLGGDGTFLKAARMTVVKGKPLLGVNLGKLGFLADVDKNDIENAVKRLVEDKFTVDERMMLDTVIVRDGKIIAEDIVLNDVVISRGAISRILHLKTYINDAFMDLYPGDGLIISTPTGSTAYSLSAGGPLVEPDVDLIICTPICPHLLYSRSFITTADRVIKVVVAESSSHEAMVTVDGQNGYEVRGGDVIITKKSRIRMPMVRLNGKNFFDVLRGKIYDRGESMK | not soluble |
| MLKIGPYEFSSRLLLGTGKYPSLDVQKEAVEASGAEILTFAVRRMNIFSPEQPNFLEQLDLSKYKLLPNTAGAKTAEEAVRIARLAKASGLCDMIKVEVIGCDKTLLPDPIETLKAAEMLLEEGFIVLPYTSDDVVLAKRLEELGCHAIMPGASPIGSGQGIINPLNLSFIIEQANVPVIVDAGIGGPADAALAMELGADGVLLNTAVSGAADPVKMAKAMKLAVEAGRLGYEAGRIPKKRYASASSPTEGMSVV | not soluble |
| MLKKYTRYSNFRLISQIQFQRHIDIFHAITYDNIDGLVAAFVRNEPFDIKDKNGNTPLHLAAKLNRRLLCRAVCVYAAGLDLWNSKNNDGKTPIEMTDDANIKRDLQSISTSRSSVDSHHMAYNKLLIEKKINENEEQNQNQKVILSLDGGGLRVVLQCAILLAVERELGEPLRNRIHWIAGTSCGGIMASSIGVGIDLADALRLYIIIRKRIFGGNNQKFPKHSALGIETCLQEVMGSKTLMSKCTAHRLVVTTAKVTLAPPQLVLFRSYAPRIDSKEFEQLGYFNPNKILLWKAIRCTTAAPTYFPSFNGMADGALFCNNPCIMVMTEFAKLKKIENYRGKNNTDEIGCVISVGTGIEPSYPINGIDINLTSGLTGITGNWREIIENTKNLITVFLYQCTSSHNVHVGQSREWCHSMQVPFFRFSPHLAAPFELDNCKIEDITNAMFDNEVYIRTEIKQHISDLCRLLKSMPRNTEPCNYSKITGGKGSKVGSPKSDKK | not soluble |
| MLKQLLEQATSNNGKARLYAFENTVELTNLIPPTVSYESGGNTLIVGPTAIIESAAAQLSQMNSLTLLSTDGEKGTNPELYYANSVQVSGFLGTFEVLIENHGSTNNLAKVAINSDCFDIVLDLCLNSCMSEEVPVPGYYPVGRGYPKLAEALEEIPTLMGTFDKPKFFRLDTDLCAHSSRGVKGCERCVDACPAGALSSEGSDKTGHRIEINPYLCQGVGTCATACPTEAIHYALPNPEDTQKFIERTLANYEQAGGLDPIVLICSSRHESYNVMALKALPDNVIPIVVEELPSVGIDTWFAALVNGATQVLFAASRFMPQTIIRVLNSEVGIAQELLDQLGIAKETIDILYLESLREGAPTLCTESFDLALGDLQGNKRQRLFTALDALSASRIPVENIVELPANAPYGTVSCESKDC | not soluble |
| MLKRRRFHVHFGWILFHCQDCMRHEEGSEESESSFTEMVAEELKLREAQAQEDEWRADRLLLDAKKAASQYQKEADKCSMGMETCELAREKAEAALDEQRRLSYMWELRARQGGWKEGTVASDVI | soluble |
| MLLAMELLLEYDYYWKLDNIIANVQRNFPSNSLTVLFPKTHLLISPENMGRVAAKLIRLTEKNQQRNGIVTFKLYYQHEEGEEEEEEEVDEDEDEEGEEGEEEEEEEDEVEEVPQKISEIFNLGAHLVGEPPENCWYLEDILTIPKEIIKDAFGDVTVWYGKSFQLRNSIANRRIHFNLFYTKNYLKKFFMERDGCMMETEFLRHFKDIAN | not soluble |
| MLLCAGRNETLKKAVPIGVGLIESAINLTRMCLKNPDTESLIFIGSAGSYSPEMELLSVFESVCGYQIEESFSHLNSYTPLDNFIHIETEEQALFERVRVNSSNYIHTSEMFAKKMVQKGVLLENMEFFSVLSVAKAFSLKAKGIFCVSNYVGLNAYQEFKENHAKVKQILENIIDSLII | soluble |
| MLLETTPIKANHLRSILDYIEQEQLTAEDRNHCMKLSKKKSIEKKTIHPTVNLNGSACFLQSPSDAIFCRHLSLQYALDSLRNGKGKVNLIKHYSSVESIQQHVPLVRDAEFRALLRHPPAGSRVIASKDFGFALDIFFCRMMANNVSHMSAILYIDNHTLSVRLRIKQSVYGQLNYVVSVYDPNDTNVAVRDTHRTARGFLSLDKFISSGPDAQTWADRYVRNCAIAILPLLPVGVPGAIFAGIASRMPFAPIHPSAMLLIMATGQSQQLITLFKQLPILPEKEIIEIITAQNSVGTPALEHHHHHH | soluble |
| MLLSIIMPAHNAAAYLERTLALLAQQIAGLEQVEVVAIDDASTDETAKILVEFARTHSWLKAISVDFANVGLARQAGIGLAGGQYVTFLDSDDAFLSGGLAWMVNVLRQRAPDLLMTPLQETGQPLDGTEVAGLFQDVVPLSTQQACDLFCEHQRLQGHFAGKCVTRQILLQHDLAAMECYEDMMTTPHWIVEAKSIVWGEVPVYAYYKRPGSLSDRGQTWRYGKEYIRALQSIEAAFAGRIAVWQTAHLWIGFAKDLLKTSTGRQFLDTQPAVAEKIQSISVWKYLVATQVSCKWKIRFLRVRLRLLEHHHHHH | soluble |
| MLLSRICRFRMLTRFTRLRPILQLRYLAQNSHIEEEYFEELEPTGIISSHETSQEPPKRTGFRSQNLSEDADFVENVVGALTDQRAKDVFVVKSEETEMTPYTHKIICSAFNSRQASAISENLRSLLKIDGVSNGSMSHARRSTKRSNGWYVSEVERVQVHVMSEECREKYDLEAIWAGDDRILDEIDEEKQKILLPPRR | not soluble |
| MLNEFDQYLHERYLSGKARKDRWYWNNSIQRGRSTAVRENWQWKPAVAYCRYADDFVLIVKGTKAQAEAIREECRGVLEGSLKLRLNMDKTKITHVNDGFIFLGHRIIRKRSRYGEMRVVSTIPQEKARNFAASLTALLSGNYSESKVDMAEQLNRKLKGWAMFYQFVDFKAKVFSYIDRVVFWKLAHWLARKYRTGIASLMRWWCKSPKPGQSKTWVLFGKTNHGKLSGEILYRLVGQGKKLFRWRLPEGNPYLRTETRNTYTSRFTEVAMAFASILEHHHHHH | soluble |
| MLNNAMSVVILAAGKGTRMYSDLPKVLHTLAGKAMVQHVIDAANELGAAHVHLVYGHGGDLLKQALKDDNLNWVLQAEQLGTGHAMQQAAPFFADDEDILMLYGDVPLISVETLQRLRDAKPQGGIGLLTVKLDDPTGYGRITRENGKVTGIVEHKDATDEQRQIQEINTGILIANGADMKRWLAKLTNNNAQGEYYITDIIALAYQEGREIVAVHPQRLSEVEGVNNRLQLSRLERVYQSEQAEKLLLAGVMLRDPARFDLRGTLTHGRDVEIDTNVIIEGNVTLGHRVKIGTGCVIKNSVIGDDCEISPYTVVEDANLAAACTIGPFARLRPGAELLEGAHVGNFVEMKKARLGKGSKAGHLTYLGDAEIGDNVNIGAGTITCNYDGANKFKTIIGDDVFVGSDTQLVAPVTVGKGATIAAGTTVTRNVGENALAISRVPQTQKEGWRRPVKKK | soluble |
| MLNTILVALDGSEIAERVIQTLGYLVLSPNTNVILCHVFPAPESEIELPADRPQPDLPNFSYFNIDKQMQSYQERLSVKSELELVMGDPADEIIRLANIYKADLVVIGSRGLTGMNRIVQGSVSTQVMEAANCSVLVVKPARN | not soluble |
| MLPKTWRENFFVLVREVKNLRATAKKISRHFFRKYEPQPGVFWFVFHLSRSHPFPFLKPLLSGDQARGAATPTPCMRTHLFHRIDPIKSEMGGLSTGYITFVWRGVHPRIGPIAAESLTDGKEEDEALSCGYII | not soluble |
| MLPLNATITQIIEESPLIRTFFFDHKFEDMEPGQFVMVWVRGVDEVPMGLSRNNSITVQKVGEATSKLFELKEGDSFGLRGPFGKGFTLPAKGEKVLIIAGGVGAAPLSPYAEAAFAAGAEVNTVLGARSEEHLLFEGRFEALGTVYVSTDDGSKGFKGFVTDVLKNLDVTSYDRIAVCGPEIMMASVFRFLEEREVLEKSEFSLHRYFKCGIGVCGACCIDRSGLRVCKDGPVFSGTQLIGSELGKYSRDASGRRVKI | not soluble |
| MLPLSSVELTDIKTDDLDIKWDNVQQFKLGDGSYADVFHVFYKGHDAVLKRSIKEYTDKERENIRREARVVAALNNCENVVRIYGICETLPFRGMIMEYCAGPNLSELVFQLDECKVKFETLRIFKWCHDLTRTLCELNVTYYHGDVKAKNVLVKERPCCCVEGIYENVKIRNTTYSLCTICNGVHLEHLSLKICDFGMSYEHKDKRLYNGGTREFSAPETIRGIYTEKSEVYSFGHLMLVLVIGGPTEDDCAVGQRAFLKMYNNKKYDMSGCKSNSICETIEWCLNNTQESRPTFKQLLSKLNSRHTHYLSLRGTDTRRLEANNEREEFLDHYRIPRKISVHRRTTTTSTCISLSETSGSNQDISVTSAAYLGGPIVNQMFIADTPLASPSASRKFRNDGFEKTNYVENQLYTGDETRKPFLTGGISHPGYSVMRKNSVWKFFVQARNSIRSKITKLVRKRK | not soluble |
| MLPQHDFIFFFFAFSILSPSPPPLSSFSSPPPPSFSFFIASTSFFSSQPPSHPRVKKCIDTHTTPSTLTFFSAHHPLASPKIHYEVVLYYSFFFKFRLRLLLVSVAHQLLE | not soluble |
| MLQITKSLSIALTEIEMTALRSQGAGGQNVNKVASAIHLRFDIGASSLPDVYKERLLNLNDQRITKDGIVVIKAQSHRTQEQNREEALKRLQGLISSVITLPKPRRPTKPTRSSQRKRLDAKTKRSAVKALRKSIDELEHHHHHH | not soluble |
| MLQKLIQILRRNEYVKNVYKNTVSNFIETSIPEITPFNARTSSIKGKRLNLLVPSINQEHMFGGISTALKLFEQFDNKKFKKRIILTDATPNPKDLQSFKSFKYVMPEEDKDFALQIVPFNDRYNRTIPVAKHDIFIATAWWTAYAAQRIVSWQSDTYGIPPNKILYIIQDFEPGFYQWSSQYVLAESTYKYRGPQIAVFNSELLKQYFNNKGYNFTDEYFFQPKINTTLKNYINDKRQKEKIILVYGRPSVKRNAFTLIVEALKIFVQKYDRSNEWKIISVGEKHKDIALGKGIHLNSLGKLTLEDYADLLKRSSIGISLMISPHPSYPPLEMAHFGLRVITNKYENKDLSNWHSNIVSLEQLNPENIAETLVELCMSFNNRDVDKKESSNMMFYINEFNEFSFIKEIEEKL | soluble |
| MLQKTKGIVLHTLKYNDTSIIVDMYTELSGRTSFLVPVPRSRKAAVKSVLFQPLSFIEFEADFRPNATLYRVKEAKSFYPFTSIPYDPYKSSMALFLAEFLYRAVREEAENRPLFAYLQHSVIWLDECREGFANFHLVFLMRLSRFLGLYPNLEDYHTGDYFDLLNACFTSTRPQLHSSYINPEEAGRLRQLMRMNYETMHLFGMSRAERTRCLTIMNDYYRLHLPDFPALKSLDVLKELFD | not soluble |
| MLQVRMLLRIPTVLRSQELIDKAFSRASRIEEPYFPDKIERIRKEVQDRISTIESISRSFLDRLVKKFPSINNLHPFYSSLIDLMFDIDQYKISLSKIDRTSQMIEQISGEHIRRLKAAKTVEDANRIMRSYYGRFASLVHEIDQDLLFLGKCRDYMKKIPDIDVNLRTYIIAGMPNVGKSSLLAALTTKKPEIAPYPFTTKSVIIGIAEHGYERIQFIDTPGILDRDFDEMNQIEKNAVLALRHIKGTVIFLFDYSDQSLYDPEMQEHLYQQIREHINPDIIRVQTKMDISREKREKIAISVNSEGGLDPLKAIIFGRADDDVRRLEHHHHHH | not soluble |
| MLRALRGAADLLSTALYKNEMMMSRRYLSTPAPEPAKPSSEETTESTEPATSVEDAGEPMKEKRITQPYSSEALTKLKLDQYPLYVEREWWKTGKRMTFWASWRQLRDVKRREQIQEVGADRMRLKAIKFNTILPQAIRDEAAEKMQKARKYDHPRLILNMCQFTGRQRGKIKPYRLSRHLFRRFADRSALSGVQRAMW | not soluble |
